Measurements taken from PMC5206724, “Insensitivity to pain induced by a potent selective closed-state Nav1.7 inhibitor” (Scientific Reports, 2017).

Key:
[1] = target: human Nav1.4 (human) (UniProt P35499)
[2] = target: human Nav1.2 (human) (UniProt Q99250)
[3] = target: human Nav1.1 (human) (UniProt P35498)
[4] = target: human Nav1.3 (human) (UniProt Q9NY46)
[5] = target: human Nav1.6 (human) (UniProt Q9UQD0)
[6] = target: human Nav1.5 (human) (UniProt Q14524)

Chain of Protoxin-II (β/ω-theraphotoxin-Tp2a) (P83476 whole entry): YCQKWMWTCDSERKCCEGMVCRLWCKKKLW
Chain of human Nav1.6 (human) (Q9UQD0 whole entry): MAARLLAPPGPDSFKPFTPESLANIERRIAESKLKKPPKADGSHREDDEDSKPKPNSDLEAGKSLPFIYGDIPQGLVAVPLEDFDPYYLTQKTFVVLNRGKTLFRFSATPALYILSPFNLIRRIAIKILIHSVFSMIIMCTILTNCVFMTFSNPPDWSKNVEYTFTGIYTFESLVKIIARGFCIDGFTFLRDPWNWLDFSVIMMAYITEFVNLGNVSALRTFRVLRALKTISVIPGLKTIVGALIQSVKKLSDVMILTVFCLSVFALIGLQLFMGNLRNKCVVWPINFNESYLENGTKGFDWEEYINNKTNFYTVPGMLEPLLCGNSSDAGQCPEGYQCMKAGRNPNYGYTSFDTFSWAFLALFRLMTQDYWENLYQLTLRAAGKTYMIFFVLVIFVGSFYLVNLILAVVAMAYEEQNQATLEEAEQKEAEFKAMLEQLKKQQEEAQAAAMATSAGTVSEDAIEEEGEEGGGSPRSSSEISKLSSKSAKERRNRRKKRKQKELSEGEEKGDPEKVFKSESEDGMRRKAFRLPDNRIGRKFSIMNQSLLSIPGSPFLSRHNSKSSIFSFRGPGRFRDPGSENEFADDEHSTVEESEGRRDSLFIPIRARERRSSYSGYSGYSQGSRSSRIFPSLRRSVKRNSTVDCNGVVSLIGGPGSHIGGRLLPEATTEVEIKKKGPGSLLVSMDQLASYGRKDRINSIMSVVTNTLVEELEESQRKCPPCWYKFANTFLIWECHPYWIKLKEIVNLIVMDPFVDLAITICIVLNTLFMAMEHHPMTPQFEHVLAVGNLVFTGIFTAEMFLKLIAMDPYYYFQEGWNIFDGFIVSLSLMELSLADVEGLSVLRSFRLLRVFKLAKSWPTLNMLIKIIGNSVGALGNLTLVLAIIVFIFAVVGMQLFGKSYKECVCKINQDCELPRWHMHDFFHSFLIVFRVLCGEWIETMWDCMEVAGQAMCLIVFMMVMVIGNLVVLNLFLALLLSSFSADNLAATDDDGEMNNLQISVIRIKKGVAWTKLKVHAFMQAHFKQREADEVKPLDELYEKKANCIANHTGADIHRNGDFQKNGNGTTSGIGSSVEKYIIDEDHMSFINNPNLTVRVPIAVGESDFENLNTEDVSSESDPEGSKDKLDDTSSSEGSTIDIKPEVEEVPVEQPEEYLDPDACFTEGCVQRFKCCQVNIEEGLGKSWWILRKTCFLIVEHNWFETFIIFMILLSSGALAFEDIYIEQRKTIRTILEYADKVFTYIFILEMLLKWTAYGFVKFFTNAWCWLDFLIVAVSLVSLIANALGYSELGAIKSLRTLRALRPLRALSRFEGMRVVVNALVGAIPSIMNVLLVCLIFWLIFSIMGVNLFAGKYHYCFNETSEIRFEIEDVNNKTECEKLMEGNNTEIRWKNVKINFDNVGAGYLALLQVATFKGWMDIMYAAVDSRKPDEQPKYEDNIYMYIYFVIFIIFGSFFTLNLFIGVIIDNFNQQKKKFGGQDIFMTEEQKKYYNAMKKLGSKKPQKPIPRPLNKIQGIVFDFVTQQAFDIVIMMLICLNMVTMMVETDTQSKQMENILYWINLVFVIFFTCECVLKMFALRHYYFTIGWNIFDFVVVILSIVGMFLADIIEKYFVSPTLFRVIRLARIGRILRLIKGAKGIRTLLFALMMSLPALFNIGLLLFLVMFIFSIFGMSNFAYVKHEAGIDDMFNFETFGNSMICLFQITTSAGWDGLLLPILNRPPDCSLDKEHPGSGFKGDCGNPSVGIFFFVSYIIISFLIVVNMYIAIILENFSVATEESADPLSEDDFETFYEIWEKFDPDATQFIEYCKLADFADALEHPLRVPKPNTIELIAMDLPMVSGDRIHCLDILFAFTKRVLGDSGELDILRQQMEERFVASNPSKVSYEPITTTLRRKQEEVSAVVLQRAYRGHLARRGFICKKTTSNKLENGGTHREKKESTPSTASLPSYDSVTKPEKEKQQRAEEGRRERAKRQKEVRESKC
Chain of human Nav1.4 (human) (P35499 whole entry): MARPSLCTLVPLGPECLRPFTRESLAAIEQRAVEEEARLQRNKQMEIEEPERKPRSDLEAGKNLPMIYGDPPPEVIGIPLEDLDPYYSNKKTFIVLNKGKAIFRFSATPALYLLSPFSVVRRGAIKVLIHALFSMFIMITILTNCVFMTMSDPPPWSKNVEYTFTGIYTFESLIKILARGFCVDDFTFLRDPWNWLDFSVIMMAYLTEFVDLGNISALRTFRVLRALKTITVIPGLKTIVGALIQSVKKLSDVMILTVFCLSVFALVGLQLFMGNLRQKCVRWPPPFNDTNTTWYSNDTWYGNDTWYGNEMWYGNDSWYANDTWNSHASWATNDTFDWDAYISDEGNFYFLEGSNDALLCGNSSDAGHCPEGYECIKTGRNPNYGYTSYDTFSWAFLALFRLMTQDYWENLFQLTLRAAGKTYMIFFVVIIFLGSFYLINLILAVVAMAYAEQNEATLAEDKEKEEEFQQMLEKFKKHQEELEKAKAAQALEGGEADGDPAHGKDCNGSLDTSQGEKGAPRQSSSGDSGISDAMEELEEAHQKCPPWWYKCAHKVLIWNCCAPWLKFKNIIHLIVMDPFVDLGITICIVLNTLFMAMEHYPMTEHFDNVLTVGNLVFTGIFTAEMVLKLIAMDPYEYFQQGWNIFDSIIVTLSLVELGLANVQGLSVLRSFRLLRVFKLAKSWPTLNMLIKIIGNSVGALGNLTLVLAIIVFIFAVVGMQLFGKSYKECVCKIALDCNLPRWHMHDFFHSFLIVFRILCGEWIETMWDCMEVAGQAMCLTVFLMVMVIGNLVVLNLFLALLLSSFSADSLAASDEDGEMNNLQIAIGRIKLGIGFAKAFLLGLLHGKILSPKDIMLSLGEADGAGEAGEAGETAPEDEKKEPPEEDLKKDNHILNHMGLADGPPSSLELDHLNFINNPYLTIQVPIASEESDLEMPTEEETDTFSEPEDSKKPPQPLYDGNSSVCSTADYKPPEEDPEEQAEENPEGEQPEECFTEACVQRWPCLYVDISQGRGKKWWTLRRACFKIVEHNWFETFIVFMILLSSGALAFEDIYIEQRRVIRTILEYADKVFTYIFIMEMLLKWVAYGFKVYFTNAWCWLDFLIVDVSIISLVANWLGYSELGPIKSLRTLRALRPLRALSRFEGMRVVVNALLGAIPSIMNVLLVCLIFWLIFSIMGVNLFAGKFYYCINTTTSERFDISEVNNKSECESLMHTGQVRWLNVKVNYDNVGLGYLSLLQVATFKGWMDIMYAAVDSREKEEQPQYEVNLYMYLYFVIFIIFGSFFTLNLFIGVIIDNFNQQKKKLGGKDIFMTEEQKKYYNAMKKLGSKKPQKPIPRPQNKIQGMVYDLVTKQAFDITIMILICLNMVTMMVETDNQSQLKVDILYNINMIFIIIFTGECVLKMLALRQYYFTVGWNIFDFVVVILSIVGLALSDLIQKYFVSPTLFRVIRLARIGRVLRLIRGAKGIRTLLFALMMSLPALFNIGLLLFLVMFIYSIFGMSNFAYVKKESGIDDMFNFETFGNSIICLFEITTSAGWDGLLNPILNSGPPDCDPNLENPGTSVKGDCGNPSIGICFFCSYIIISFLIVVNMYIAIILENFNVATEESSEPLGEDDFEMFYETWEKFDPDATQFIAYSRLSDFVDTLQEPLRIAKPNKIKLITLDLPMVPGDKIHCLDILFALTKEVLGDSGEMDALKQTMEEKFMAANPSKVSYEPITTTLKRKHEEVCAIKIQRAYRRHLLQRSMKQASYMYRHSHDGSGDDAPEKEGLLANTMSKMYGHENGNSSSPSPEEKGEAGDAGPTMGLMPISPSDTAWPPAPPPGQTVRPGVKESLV

Protoxin-II (β/ω-theraphotoxin-Tp2a) (from UniProt P83476 1-30) (peptide)
pIC50 of inhibition of sodium current, automated patch clamp (QPatch); fitted Emax 100 % [1]: 7.1 -log10(IC50)
pIC50 of inhibition of sodium current, automated patch clamp (QPatch); fitted Emax 100 % [2]: 7.1 -log10(IC50)
pIC50 of inhibition of sodium current, automated patch clamp (QPatch); fitted Emax 100 % [3]: 7.8 -log10(IC50)
pIC50 of inhibition of sodium current, automated patch clamp (QPatch); fitted Emax 100 % [4]: 7.6 -log10(IC50)
pIC50 of inhibition of sodium current, automated patch clamp (QPatch); fitted Emax 100 % [5]: 7.5 -log10(IC50)
pIC50 of inhibition of sodium current, automated patch clamp (QPatch); fitted Emax 100 % [6]: 6.4 -log10(IC50)
